Publication PMC9482650, “Quantitative fragmentomics allow affinity mapping of interactomes” (Nature Communications, 2022)

Legend:
Experiment in all cases: holdup assay
Design in all cases: key: below the threshold = too weak to quantify, mostly under pKd 3.1 to 4
Conditions in all cases: plain residues with an end cap or a label only (N-terminal biotin on a linker: ado-ado)
Inadl_6, Q8NI35 = biological target: Inadl_6, Q8NI35
GRIP1_7, Q9Y3R0 = biological target: T1, GRIP1_7, Q9Y3R0
T1 sequence (Q9Y3R0 999-1096, limits assumed, looked up): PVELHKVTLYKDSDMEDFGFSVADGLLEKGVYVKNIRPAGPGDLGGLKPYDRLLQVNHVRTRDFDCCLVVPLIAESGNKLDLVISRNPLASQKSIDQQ

Inadl_2, Q8NI35 = biological target: Inadl_2, Q8NI35
Sequence of Inadl_2, Q8NI35 (Q8NI35 238-335): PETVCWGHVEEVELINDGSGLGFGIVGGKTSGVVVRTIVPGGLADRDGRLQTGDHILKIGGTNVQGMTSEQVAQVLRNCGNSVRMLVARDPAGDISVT

GRIP1_4, Q9Y3R0 = biological target: T2, GRIP1_4, Q9Y3R0
T2 sequence (Q9Y3R0 467-571, limits assumed, looked up): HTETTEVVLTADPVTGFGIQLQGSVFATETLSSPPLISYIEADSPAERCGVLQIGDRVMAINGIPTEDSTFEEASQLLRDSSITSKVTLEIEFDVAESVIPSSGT

SNTB1, Q13884 = biological target: T3, SNTB1, Q13884
T3 sequence (Q13884 107-205, limits assumed, looked up): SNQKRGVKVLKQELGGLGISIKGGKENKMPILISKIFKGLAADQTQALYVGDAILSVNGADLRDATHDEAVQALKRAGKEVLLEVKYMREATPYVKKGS

SCRIB_1, Q14160 = biological target: SCRIB_1, Q14160
Sequence of SCRIB_1, Q14160 (Q14160 718-814): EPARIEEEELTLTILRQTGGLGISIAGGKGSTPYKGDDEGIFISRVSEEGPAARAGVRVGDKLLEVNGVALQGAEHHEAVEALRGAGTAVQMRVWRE

DFNB31_3, Q9P202 = biological target: T4, DFNB31_3, Q9P202
T4 sequence (Q9P202 811-907, limits assumed, looked up): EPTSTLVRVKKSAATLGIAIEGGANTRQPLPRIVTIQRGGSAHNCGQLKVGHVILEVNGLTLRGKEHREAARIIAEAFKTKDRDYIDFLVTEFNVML

GOPC, Q9HD26 = biological target: GOPC, Q9HD26
IL16_3, Q14005 = biological target: IL16_3, Q14005
Sequence of IL16_3, Q14005 (Q14005 1107-1207): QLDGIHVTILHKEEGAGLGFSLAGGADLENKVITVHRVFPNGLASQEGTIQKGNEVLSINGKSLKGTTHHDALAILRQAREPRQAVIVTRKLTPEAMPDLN

GRIP2_4, Q9C0E4 = biological target: GRIP2_4, Q9C0E4
Sequence of GRIP2_4, Q9C0E4 (Q9C0E4 446-548): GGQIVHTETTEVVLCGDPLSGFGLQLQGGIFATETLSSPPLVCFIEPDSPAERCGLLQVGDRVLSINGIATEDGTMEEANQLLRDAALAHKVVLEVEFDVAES

DLG1_3, Q12959 = biological target: DLG1_3, Q12959
Sequence of DLG1_3, Q12959 (Q12959 457-571): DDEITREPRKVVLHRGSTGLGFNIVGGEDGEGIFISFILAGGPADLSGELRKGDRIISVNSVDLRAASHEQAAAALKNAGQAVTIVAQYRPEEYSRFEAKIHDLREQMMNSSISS

LRRC7, Q96NW7 = biological target: T5, LRRC7, Q96NW7
T5 sequence (Q96NW7 1440-1537, limits assumed, looked up): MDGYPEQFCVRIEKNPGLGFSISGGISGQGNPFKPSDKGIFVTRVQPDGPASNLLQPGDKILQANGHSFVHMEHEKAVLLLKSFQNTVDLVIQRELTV

SNTA1, Q13424 = biological target: T6, SNTA1, Q13424
T6 sequence (Q13424 82-180, limits assumed, looked up): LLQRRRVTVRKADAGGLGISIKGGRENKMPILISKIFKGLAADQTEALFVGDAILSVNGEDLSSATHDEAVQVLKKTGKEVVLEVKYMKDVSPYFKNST

GRIP2_6, Q9C0E4 = biological target: GRIP2_6, Q9C0E4
Sequence of GRIP2_6, Q9C0E4 (Q9C0E4 648-740): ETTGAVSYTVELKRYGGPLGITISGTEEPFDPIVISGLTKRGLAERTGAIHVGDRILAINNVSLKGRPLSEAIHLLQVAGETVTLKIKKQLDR

FRMPD2_3, Q68DX3 = biological target: FRMPD2_3, Q68DX3
Sequence of FRMPD2_3, Q68DX3 (Q68DX3 1073-1166): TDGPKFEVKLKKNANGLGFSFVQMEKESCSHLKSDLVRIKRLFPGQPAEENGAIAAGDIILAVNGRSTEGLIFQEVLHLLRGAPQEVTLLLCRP

CARD11, Q9BXL7 = biological target: T7, CARD11, Q9BXL7
T7 sequence (Q9BXL7 662-765, limits assumed, looked up): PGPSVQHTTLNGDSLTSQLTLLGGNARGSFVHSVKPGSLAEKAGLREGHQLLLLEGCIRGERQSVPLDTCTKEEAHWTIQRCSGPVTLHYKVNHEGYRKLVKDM

Inadl_10, Q8NI35 = biological target: Inadl_10, Q8NI35
Sequence of Inadl_10, Q8NI35 (Q8NI35 1673-1763): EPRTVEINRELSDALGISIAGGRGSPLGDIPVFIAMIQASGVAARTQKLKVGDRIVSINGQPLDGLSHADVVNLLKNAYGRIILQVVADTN

RHPN1, Q8TCX5 = biological target: T8, RHPN1, Q8TCX5
T8 sequence (Q8TCX5 508-602, limits assumed, looked up): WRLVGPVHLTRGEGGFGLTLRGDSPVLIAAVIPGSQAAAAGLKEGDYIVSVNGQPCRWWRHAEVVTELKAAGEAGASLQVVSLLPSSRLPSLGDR

MAGI3_2, Q5TCQ9 = biological target: MAGI3_2, Q5TCQ9
Sequence of MAGI3_2, Q5TCQ9 (Q5TCQ9 398-503): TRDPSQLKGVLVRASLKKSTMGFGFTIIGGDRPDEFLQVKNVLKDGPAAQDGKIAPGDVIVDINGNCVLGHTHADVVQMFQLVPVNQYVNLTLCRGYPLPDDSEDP

GORASP1, Q9BQQ3 = biological target: GORASP1, Q9BQQ3
Sequence of GORASP1, Q9BQQ3 (Q9BQQ3 1-208): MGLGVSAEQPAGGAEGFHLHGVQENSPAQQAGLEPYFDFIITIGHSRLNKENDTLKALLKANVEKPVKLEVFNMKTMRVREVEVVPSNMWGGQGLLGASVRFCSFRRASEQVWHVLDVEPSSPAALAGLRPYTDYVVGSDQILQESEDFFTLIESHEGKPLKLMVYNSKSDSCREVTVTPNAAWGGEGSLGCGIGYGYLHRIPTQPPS

SNX27, Q96L92 = biological target: SNX27, Q96L92
DLG2_3, Q15700 = biological target: DLG2_3, Q15700
TIAM2, Q8IVF5 = biological target: T9, TIAM2, Q8IVF5
T9 sequence (Q8IVF5 885-986, limits assumed, looked up): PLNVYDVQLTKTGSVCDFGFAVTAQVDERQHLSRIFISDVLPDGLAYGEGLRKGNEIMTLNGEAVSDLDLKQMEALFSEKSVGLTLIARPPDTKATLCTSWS

GRASP, Q7Z6J2 = biological target: GRASP, Q7Z6J2
Sequence of GRASP, Q7Z6J2 (Q7Z6J2 96-193): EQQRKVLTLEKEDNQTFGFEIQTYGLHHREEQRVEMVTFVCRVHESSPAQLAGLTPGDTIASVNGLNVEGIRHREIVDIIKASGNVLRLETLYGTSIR

NHERF3_3, Q5T2W1 = biological target: T10, NHERF3_3, Q5T2W1
T10 sequence (Q5T2W1 238-333, limits assumed, looked up): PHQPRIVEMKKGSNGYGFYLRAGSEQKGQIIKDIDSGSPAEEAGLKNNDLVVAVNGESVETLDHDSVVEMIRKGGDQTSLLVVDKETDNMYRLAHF

HTRA3, P83110 = biological target: T11, HTRA3, P83110
T11 sequence (P83110 354-453, limits assumed, looked up): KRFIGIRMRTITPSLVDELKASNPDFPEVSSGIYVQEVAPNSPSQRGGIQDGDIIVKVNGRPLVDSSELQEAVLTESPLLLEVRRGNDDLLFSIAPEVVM

Measured: pKd

Sequence of Inadl_6, Q8NI35 (Q8NI35 1058-1167): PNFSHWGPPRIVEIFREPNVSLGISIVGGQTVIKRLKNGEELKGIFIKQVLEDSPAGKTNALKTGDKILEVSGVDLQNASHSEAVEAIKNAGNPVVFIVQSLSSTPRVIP

EKCGKEFSEF [PRKACA, P17612]
4.13: TIAM2, Q8IVF5
3.74: DLG2_3, Q15700
4.16: GRASP, Q7Z6J2
below the threshold: all other assays above

QKAPTKEFYA [SDC2, P34741]
3.51: GORASP1, Q9BQQ3
3.67: FRMPD2_3, Q68DX3
4.34: TIAM2, Q8IVF5
3.83: DLG2_3, Q15700
4.1: GRIP2_6, Q9C0E4
4.31: HTRA3, P83110
3.91: DFNB31_3, Q9P202
below the threshold: all other assays above

QLSFNTDTLC [ABCA2, Q9BZC7]
4.17: SNX27, Q96L92
3.59: SNTB1, Q13884
4.13: TIAM2, Q8IVF5
3.73: DLG2_3, Q15700
4.26: HTRA3, P83110
below the threshold: all other assays above

EDLEDEWEVI [TECPR2, O15040]
3.57: RHPN1, Q8TCX5
3.98: TIAM2, Q8IVF5
3.77: DLG2_3, Q15700
3.68: SNTB1, Q13884
3.76: DFNB31_3, Q9P202
4.12: GORASP1, Q9BQQ3 | HTRA3, P83110
below the threshold: all other assays above
